Assay: Stability of radiotracers in PBS / kit-based reaction solution
Assay type: physicochemical
Details: ^99mTc and ^188Re radiotracers; radio-HPLC
Method: The new radiotracers, [^64Cu(DP^An-PSMAt)2]^+ and [^64Cu(DP^MEP-PSMAt)2]^+, were purified using reverse-phase HPLC, reformulated in aqueous PBS (phosphate buffered saline) solution, and incubated with human serum at 37 °C. […] Both ^64Cu radiotracers were also stable in aqueous PBS solution (see SI).
Both [^99mTcO2(DP^An-PSMAt)2]^+ and [^99mTcO2(DP^MEP-PSMAt)2]^+, prepared using kits, were incubated at 37 °C in human serum for up to 24 h. […] [^188ReO2(DP^An-PSMAt)2]^+ and [^188ReO2(DP^MEP-PSMAt)2]^+, prepared using kits and then isolated using reverse-phase HPLC in >98% radiochemical purity, were also incubated in human serum under the same conditions. […] These ^99mTc and ^188Re radiotracers were also stable when left to stand in kit-based reaction solutions, or in PBS solution (see SI for full chromatograms).
64Cu: A solution of either [ 64Cu(DPAn-PSMAt)2]+ or [64Cu(DPMEP-PSMAt)2]+ (purified, >98% RCP, 0.6– 0.8 MBq in 8–20 µL PBS) was diluted with PBS (350 µL total volume) and incubated at 37 °C. After 24 h, the sample was analysed by analytical C18 radio-HPLC (Method 2). […]
Each aliquot was treated with an equal amount of ice -cold MeCN to precipitate serum proteins and centrifuged (10,000 rpm, 10 min). The supernatant was isolated, MeCN evaporated under a stream of N2, and the resultant solution analysed by analytical C18 radio-HPLC (Method 2). […]

SMILES	stability when left to stand in kit-based reaction solutions, or in PBS solution
COc1ccc(P(/C(C(=O)O)=C(/C(=O)NCCOCCOCCOCCOCCC(=O)NCCCC[C@H](NC(=O)N[C@@H](CCC(=O)O)C(=O)O)C(=O)O)P(c2ccc(OC)cc2)c2ccc(OC)cc2)c2ccc(OC)cc2)cc1 [[^99mTcO2(DP^An-PSMAt)2]^+, metal not drawn]	stable
COCCOc1ccc(P(/C(C(=O)O)=C(/C(=O)NCCOCCOCCOCCOCCC(=O)NCCCC[C@H](NC(=O)N[C@@H](CCC(=O)O)C(=O)O)C(=O)O)P(c2ccc(OCCOC)cc2)c2ccc(OCCOC)cc2)c2ccc(OCCOC)cc2)cc1 [[^99mTcO2(DP^MEP-PSMAt)2]^+, metal not drawn]	stable

From article PMC12435366, “Maleic anhydride derived diphosphines: adaptable chelators for receptor-targeted ^99mTc, ^64Cu and ^188Re radiotracers” (Chemical Science, 2025)
